Holding throughout (assay): ELISA
(In general: ELISA stands for enzyme-linked immunosorbent assay.)

One experiment has as its target T1, rat NPR1 (rat).
T1 chain: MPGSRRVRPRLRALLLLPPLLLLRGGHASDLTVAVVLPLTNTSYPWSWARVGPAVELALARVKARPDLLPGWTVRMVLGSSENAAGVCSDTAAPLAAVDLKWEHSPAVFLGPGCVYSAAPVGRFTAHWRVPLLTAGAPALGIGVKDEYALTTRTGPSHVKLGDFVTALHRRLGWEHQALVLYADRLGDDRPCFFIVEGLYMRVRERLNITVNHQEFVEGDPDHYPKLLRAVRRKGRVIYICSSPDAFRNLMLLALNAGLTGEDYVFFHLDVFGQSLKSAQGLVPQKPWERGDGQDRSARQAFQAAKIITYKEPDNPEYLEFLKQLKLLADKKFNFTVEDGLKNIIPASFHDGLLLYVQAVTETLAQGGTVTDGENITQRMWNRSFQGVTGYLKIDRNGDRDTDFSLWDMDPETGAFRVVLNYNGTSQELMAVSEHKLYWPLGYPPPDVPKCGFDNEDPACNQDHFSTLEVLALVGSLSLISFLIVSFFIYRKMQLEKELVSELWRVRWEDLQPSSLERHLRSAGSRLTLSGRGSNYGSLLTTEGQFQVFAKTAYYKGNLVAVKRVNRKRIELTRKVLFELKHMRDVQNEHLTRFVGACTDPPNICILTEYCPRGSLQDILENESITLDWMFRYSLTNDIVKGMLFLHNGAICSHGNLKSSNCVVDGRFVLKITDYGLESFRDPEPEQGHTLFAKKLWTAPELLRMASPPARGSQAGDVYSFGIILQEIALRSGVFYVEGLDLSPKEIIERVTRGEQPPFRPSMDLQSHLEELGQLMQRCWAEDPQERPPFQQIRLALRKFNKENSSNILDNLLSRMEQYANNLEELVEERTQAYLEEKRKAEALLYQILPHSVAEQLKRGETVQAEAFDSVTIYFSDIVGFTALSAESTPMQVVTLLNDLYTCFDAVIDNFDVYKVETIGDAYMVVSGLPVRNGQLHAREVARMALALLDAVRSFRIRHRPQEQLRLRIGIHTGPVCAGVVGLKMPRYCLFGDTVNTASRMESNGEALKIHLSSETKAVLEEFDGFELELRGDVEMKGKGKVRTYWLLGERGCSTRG

For the next experiment, the target named is T2, human NPR3 + ANP (human, UniProt P17342).
T2 chain 1: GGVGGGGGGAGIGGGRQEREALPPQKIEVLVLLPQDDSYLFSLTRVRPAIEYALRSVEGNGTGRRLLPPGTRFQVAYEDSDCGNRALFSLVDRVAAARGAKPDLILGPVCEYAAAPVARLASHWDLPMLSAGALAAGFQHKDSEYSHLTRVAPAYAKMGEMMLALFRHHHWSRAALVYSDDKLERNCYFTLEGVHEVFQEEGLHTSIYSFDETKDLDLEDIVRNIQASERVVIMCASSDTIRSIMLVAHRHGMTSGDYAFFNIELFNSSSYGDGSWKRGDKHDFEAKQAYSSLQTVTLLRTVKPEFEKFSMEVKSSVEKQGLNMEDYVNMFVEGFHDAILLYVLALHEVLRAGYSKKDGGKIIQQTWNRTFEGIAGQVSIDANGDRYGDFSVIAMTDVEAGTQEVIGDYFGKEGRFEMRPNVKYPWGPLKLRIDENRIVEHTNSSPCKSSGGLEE
T2 chain 2: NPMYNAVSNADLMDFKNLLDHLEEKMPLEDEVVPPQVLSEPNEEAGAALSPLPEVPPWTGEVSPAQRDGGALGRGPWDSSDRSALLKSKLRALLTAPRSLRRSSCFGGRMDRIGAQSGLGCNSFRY

A further experiment addresses T3, human NPR3 (human, UniProt P17342).
T3 chain: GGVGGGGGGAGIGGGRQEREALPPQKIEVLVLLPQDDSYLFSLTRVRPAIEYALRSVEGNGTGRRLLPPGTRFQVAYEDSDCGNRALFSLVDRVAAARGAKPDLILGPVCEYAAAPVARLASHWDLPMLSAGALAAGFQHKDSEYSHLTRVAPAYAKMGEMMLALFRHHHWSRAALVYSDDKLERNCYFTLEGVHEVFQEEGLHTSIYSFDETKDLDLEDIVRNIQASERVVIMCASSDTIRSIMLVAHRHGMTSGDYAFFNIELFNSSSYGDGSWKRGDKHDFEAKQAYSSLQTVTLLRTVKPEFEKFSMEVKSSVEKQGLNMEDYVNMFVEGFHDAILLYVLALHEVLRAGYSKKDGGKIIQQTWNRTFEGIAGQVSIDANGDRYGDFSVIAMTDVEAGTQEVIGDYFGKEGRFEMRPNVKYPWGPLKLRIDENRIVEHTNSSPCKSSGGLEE

The target in the next experiment is T4, human NPR1-ANP complex (human).
T4 chain 1: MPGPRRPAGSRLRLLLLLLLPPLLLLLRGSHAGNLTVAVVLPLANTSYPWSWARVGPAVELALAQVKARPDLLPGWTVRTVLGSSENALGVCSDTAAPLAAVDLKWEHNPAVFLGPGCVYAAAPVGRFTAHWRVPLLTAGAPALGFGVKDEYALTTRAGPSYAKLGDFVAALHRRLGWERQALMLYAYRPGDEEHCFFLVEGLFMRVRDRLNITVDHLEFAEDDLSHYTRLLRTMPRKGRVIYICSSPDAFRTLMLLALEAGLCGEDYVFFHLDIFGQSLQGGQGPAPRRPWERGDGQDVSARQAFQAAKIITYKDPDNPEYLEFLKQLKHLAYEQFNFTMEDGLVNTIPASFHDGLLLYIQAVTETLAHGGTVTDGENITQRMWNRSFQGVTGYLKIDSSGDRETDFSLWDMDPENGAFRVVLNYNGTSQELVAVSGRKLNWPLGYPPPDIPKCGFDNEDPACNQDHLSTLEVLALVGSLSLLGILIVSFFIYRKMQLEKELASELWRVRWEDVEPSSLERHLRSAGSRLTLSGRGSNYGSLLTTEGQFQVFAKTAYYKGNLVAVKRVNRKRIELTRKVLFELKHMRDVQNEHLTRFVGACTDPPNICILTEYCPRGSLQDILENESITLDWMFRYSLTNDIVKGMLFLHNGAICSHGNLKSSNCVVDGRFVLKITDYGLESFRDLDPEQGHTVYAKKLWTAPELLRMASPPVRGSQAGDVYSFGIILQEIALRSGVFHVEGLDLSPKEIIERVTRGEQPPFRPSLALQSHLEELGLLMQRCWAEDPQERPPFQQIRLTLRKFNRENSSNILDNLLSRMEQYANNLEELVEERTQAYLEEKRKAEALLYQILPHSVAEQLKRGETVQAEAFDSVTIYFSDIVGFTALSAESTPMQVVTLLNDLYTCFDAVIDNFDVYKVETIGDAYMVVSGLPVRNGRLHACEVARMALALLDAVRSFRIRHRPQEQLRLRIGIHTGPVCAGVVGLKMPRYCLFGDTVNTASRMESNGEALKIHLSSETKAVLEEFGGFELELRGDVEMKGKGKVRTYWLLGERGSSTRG
T4 chain 2: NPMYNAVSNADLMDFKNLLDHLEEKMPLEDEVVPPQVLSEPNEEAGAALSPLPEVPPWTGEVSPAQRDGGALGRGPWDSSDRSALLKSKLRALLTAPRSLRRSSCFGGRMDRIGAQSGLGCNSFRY

B1: WW06 IgG (antibody, V domains shown)
VH: QVQLVQSGAEVKKPGESLKISCKGSGYSFTSYWIAWVRQMPGKGLEWMGRIDPDNSYTRYSPSFQGQVTISADKSISTAYLQWSSLKASDTAMYYCARWLSPGYALGEQPAGMDHWGQGTLVTVSS
VL: DIVLTQPPSVSGAPGQRVTISCTGSSSNIGAGYAVHWYQQLPGTAPKLLIYSNNKRPSGVPDRFSGSKSGTSASLAITGLQAEDEADYYCQSYDLQKSSRVFGGGTKLTVL
In general, EC50 refers to the midpoint of the concentration-response curve. Higher therefore signals weaker potency. For the molecule B1, the binding result with rat NPR1, with human NPR3 + ANP and in the experiment with human NPR3 was “no binding” each time. In the experiment with human NPR1-ANP complex, this molecule registered an EC50 of 1.1 nM.

For the origin of these results see patent US20230365674 (published 2023).
